Experimental data: article PMC9482650, “Quantitative fragmentomics allow affinity mapping of interactomes” (Nature Communications, 2022)
Where a chain is given by its changes, count along the chain named.

Legend:
Assay in all cases: holdup assay
Parameters in all cases: key: below the threshold = too weak to quantify, mostly under pKd 3.1 to 4
AHNAK1, Q09666 = target: AHNAK1, Q09666
APBA1_1, Q02410 = target: T1, APBA1_1, Q02410
T1 sequence (Q02410 651-752, limits assumed, looked up): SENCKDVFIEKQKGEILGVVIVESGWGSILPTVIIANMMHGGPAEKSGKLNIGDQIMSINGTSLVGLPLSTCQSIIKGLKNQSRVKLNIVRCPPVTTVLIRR

ARHGEF12, Q9NZN5-2 = target: ARHGEF12, Q9NZN5-2
CASK, O14936 = target: CASK, O14936
DLG3_3, Q92796 = target: T2, DLG3_3, Q92796
T2 sequence (Q92796 374-475, limits assumed, looked up): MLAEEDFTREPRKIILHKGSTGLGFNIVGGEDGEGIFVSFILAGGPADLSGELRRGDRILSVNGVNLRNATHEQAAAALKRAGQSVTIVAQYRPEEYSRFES

GORASP1, Q9BQQ3 = target: GORASP1, Q9BQQ3
GRIP1_2, Q9Y3R0 = target: T3, GRIP1_2, Q9Y3R0
T3 sequence (Q9Y3R0 145-248, limits assumed, looked up): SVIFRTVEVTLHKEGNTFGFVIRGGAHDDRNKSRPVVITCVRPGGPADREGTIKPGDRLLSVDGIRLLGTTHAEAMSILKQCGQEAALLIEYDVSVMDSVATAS

GRIP1_7, Q9Y3R0 = target: T4, GRIP1_7, Q9Y3R0
T4 sequence (Q9Y3R0 999-1096, limits assumed, looked up): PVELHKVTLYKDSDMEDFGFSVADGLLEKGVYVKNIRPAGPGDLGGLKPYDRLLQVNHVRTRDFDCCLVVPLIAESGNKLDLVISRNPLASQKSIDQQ

HTRA2, O43464 = target: HTRA2, O43464
Inadl_1, Q8NI35 = target: Inadl_1, Q8NI35
Inadl_8, Q8NI35 = target: Inadl_8, Q8NI35
LIN7B, Q9HAP6 = target: T5, LIN7B, Q9HAP6
T5 sequence (Q9HAP6 88-185, limits assumed, looked up): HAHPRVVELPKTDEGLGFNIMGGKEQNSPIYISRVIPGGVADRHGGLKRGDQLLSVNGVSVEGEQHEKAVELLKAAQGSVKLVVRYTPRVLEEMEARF

LIN7C, Q9NUP9 = target: T6, LIN7C, Q9NUP9
T6 sequence (Q9NUP9 88-185, limits assumed, looked up): T5 sequence (Q9HAP6 88-185, limits assumed, looked up) with A2S, D13E, V35I, V40I, Q65H, S79K, R89K, A96S

LNX1_1, Q8TBB1 = target: LNX1_1, Q8TBB1
MAGI2_3, Q86UL8 = target: MAGI2_3, Q86UL8
MAGI2_5, Q86UL8 = target: MAGI2_5, Q86UL8
MAGI3_2, Q5TCQ9 = target: MAGI3_2, Q5TCQ9
MAST1, Q9Y2H9 = target: MAST1, Q9Y2H9
MAST2, Q6P0Q8 = target: MAST2, Q6P0Q8
NHERF2_2, Q15599 = target: NHERF2_2, Q15599
NHERF4_1, Q86UT5-2 = target: NHERF4_1, Q86UT5-2
PARD3_3, Q8TEW0 = target: PARD3_3, Q8TEW0
PDLIM1, O00151 = target: PDLIM1, O00151
PTPN3, P26045 = target: PTPN3, P26045
SCRIB_1, Q14160 = target: SCRIB_1, Q14160
SCRIB_2, Q14160 = target: SCRIB_2, Q14160
SCRIB_3, Q14160 = target: SCRIB_3, Q14160
SNTG2, Q9NY99 = target: T7, SNTG2, Q9NY99
T7 sequence (Q9NY99 68-166, limits assumed, looked up): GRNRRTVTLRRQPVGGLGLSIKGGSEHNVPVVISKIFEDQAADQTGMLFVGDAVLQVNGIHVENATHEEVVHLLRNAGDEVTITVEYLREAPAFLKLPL

SNX27, Q96L92 = target: SNX27, Q96L92
TJP1_2, Q07157 = target: TJP1_2, Q07157
TJP3_3, O95049 = target: T8, TJP3_3, O95049
T8 sequence (O95049 375-456, limits assumed, looked up): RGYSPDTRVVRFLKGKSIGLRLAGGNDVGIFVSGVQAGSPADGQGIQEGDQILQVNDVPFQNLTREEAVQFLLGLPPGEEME

[1] = plain residues with an end cap or a label only (N-terminal biotin on a linker: ttds)
[2] = plain residues with an end cap or a label only (N-terminal biotin on a linker: ahx)

Chain of Inadl_8, Q8NI35 (Q8NI35 1425-1530): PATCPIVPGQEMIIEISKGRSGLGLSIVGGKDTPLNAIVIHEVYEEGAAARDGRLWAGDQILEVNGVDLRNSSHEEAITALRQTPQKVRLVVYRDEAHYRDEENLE
Chain of SCRIB_3, Q14160 (Q14160 999-1103): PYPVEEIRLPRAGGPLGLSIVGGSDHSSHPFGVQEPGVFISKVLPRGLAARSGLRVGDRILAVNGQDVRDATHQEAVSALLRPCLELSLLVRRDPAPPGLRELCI
Chain of AHNAK1, Q09666 (Q09666 4-100): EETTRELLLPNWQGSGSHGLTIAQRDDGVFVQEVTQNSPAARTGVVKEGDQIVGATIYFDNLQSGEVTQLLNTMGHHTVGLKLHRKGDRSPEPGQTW
Chain of MAST2, Q6P0Q8 (Q6P0Q8 1099-1202): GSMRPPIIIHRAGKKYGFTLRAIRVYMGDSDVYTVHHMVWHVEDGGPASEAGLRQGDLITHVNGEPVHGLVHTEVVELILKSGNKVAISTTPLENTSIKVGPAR
Chain of SCRIB_2, Q14160 (Q14160 857-960): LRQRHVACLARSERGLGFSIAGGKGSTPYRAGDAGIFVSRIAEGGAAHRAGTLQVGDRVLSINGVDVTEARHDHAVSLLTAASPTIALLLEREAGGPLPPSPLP
Chain of MAST1, Q9Y2H9 (Q9Y2H9 962-1065): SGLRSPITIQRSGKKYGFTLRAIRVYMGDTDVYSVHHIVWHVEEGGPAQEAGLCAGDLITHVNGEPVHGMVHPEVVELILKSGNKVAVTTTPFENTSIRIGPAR
Chain of GORASP1, Q9BQQ3 (Q9BQQ3 1-208): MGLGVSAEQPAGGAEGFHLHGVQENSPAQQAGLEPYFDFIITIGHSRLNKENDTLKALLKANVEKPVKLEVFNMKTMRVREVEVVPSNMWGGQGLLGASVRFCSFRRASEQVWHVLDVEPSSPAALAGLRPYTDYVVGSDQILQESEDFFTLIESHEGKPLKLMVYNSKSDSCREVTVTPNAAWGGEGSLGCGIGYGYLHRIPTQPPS
Chain of PTPN3, P26045 (P26045 505-587): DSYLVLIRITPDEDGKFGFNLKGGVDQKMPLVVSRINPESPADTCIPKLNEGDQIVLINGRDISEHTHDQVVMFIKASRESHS
Chain of NHERF4_1, Q86UT5-2 (Q86UT5 other isoform, or with tags, fused parts or gaps): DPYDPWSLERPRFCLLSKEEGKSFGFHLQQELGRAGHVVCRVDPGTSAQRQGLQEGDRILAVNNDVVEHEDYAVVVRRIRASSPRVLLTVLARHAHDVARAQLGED
Chain of ARHGEF12, Q9NZN5-2 (Q9NZN5 other isoform, or with tags, fused parts or gaps): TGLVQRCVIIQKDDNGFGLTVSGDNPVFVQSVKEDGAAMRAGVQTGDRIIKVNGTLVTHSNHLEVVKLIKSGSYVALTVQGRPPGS
Chain of NHERF2_2, Q15599 (Q15599 142-238): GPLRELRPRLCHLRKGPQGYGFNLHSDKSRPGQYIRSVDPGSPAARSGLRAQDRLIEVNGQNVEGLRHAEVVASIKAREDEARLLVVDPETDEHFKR
Chain of Inadl_1, Q8NI35 (Q8NI35 113-229): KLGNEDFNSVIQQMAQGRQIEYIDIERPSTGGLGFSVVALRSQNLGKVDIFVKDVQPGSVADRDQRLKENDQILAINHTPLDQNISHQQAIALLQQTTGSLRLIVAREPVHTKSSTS
Chain of MAGI2_3, Q86UL8 (Q86UL8 600-682): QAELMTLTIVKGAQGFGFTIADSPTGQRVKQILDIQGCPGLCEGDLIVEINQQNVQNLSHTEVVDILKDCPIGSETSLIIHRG
Chain of MAGI2_5, Q86UL8 (Q86UL8 915-1017): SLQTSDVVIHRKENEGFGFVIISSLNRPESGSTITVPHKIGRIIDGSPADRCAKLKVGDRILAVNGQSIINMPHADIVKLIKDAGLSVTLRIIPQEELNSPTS
Chain of PDLIM1, O00151 (O00151 1-87): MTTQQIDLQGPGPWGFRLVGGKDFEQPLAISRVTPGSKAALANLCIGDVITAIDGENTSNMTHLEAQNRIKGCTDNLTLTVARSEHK
Chain of PARD3_3, Q8TEW0 (Q8TEW0 582-685): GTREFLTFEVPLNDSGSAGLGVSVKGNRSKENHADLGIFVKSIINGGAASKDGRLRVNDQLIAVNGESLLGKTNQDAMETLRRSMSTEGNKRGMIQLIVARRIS
Chain of MAGI3_2, Q5TCQ9 (Q5TCQ9 398-503): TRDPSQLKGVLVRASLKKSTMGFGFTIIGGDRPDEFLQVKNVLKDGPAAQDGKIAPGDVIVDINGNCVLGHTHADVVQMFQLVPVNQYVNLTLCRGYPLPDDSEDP
Chain of CASK, O14936 (O14936 487-570): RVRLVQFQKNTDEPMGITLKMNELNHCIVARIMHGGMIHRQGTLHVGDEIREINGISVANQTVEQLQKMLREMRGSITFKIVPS
Chain of HTRA2, O43464 (O43464 355-458): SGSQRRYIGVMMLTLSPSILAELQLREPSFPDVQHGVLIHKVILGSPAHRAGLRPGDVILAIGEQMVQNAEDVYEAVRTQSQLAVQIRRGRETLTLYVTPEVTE
Chain of LNX1_1, Q8TBB1 (Q8TBB1 261-371): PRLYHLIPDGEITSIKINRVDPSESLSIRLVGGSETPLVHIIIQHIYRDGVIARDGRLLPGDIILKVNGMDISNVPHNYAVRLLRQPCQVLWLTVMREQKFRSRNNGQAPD
Chain of SCRIB_1, Q14160 (Q14160 718-814): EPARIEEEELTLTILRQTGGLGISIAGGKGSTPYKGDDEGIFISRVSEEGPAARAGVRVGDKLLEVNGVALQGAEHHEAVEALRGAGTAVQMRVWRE
Chain of TJP1_2, Q07157 (Q07157 181-274): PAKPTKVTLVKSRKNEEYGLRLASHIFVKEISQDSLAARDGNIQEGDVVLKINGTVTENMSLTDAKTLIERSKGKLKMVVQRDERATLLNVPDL

DKDPHSETAL [TMIGD1, Q6UXZ0]
pKd (AHNAK1, Q09666; [1]): below the threshold | pKd (APBA1_1, Q02410; [1]): below the threshold | pKd (ARHGEF12, Q9NZN5-2; [1]): 4.17 | pKd (CASK, O14936; [1]): below the threshold | pKd (DLG3_3, Q92796; [1]): below the threshold | pKd (GORASP1, Q9BQQ3; [1]): below the threshold | pKd (GRIP1_2, Q9Y3R0; [1]): below the threshold | pKd (GRIP1_7, Q9Y3R0; [1]): below the threshold | pKd (HTRA2, O43464; [1]): below the threshold | pKd (Inadl_1, Q8NI35; [1]): below the threshold | pKd (Inadl_8, Q8NI35; [1]): below the threshold | pKd (LIN7B, Q9HAP6; [1]): below the threshold | pKd (LIN7C, Q9NUP9; [1]): below the threshold | pKd (LNX1_1, Q8TBB1; [1]): below the threshold | pKd (MAGI2_3, Q86UL8; [1]): 3.52 | pKd (MAGI2_5, Q86UL8; [1]): 3.67 | pKd (MAGI3_2, Q5TCQ9; [1]): 4.19 | pKd (MAST1, Q9Y2H9; [1]): 4.85 | pKd (MAST2, Q6P0Q8; [1]): 5.64 | pKd (NHERF2_2, Q15599; [1]): 4.66 | pKd (NHERF4_1, Q86UT5-2; [1]): 3.88 | pKd (PARD3_3, Q8TEW0; [1]): 3.74 | pKd (PDLIM1, O00151; [1]): below the threshold | pKd (PTPN3, P26045; [1]): 5.02 | pKd (SCRIB_1, Q14160; [1]): 4.64 | pKd (SCRIB_2, Q14160; [1]): 4.23 | pKd (SCRIB_3, Q14160; [1]): 5.01 | pKd (SNTG2, Q9NY99; [1]): 4.06 | pKd (SNX27, Q96L92; [1]): 5.49 | pKd (TJP1_2, Q07157; [1]): below the threshold | pKd (TJP3_3, O95049; [1]): 3.49

SDSSGQEYSL [KCTD3, Q9Y597]
pKd (AHNAK1, Q09666; [2]): below the threshold | pKd (APBA1_1, Q02410; [2]): below the threshold | pKd (ARHGEF12, Q9NZN5-2; [2]): below the threshold | pKd (CASK, O14936; [2]): below the threshold | pKd (DLG3_3, Q92796; [2]): below the threshold | pKd (GORASP1, Q9BQQ3; [2]): below the threshold | pKd (GRIP1_2, Q9Y3R0; [2]): below the threshold | pKd (GRIP1_7, Q9Y3R0; [2]): below the threshold | pKd (HTRA2, O43464; [2]): below the threshold | pKd (Inadl_1, Q8NI35; [2]): below the threshold | pKd (Inadl_8, Q8NI35; [2]): below the threshold | pKd (LIN7B, Q9HAP6; [2]): below the threshold | pKd (LIN7C, Q9NUP9; [2]): below the threshold | pKd (LNX1_1, Q8TBB1; [2]): below the threshold | pKd (MAGI2_3, Q86UL8; [2]): below the threshold | pKd (MAGI2_5, Q86UL8; [2]): below the threshold | pKd (MAGI3_2, Q5TCQ9; [2]): below the threshold | pKd (MAST1, Q9Y2H9; [2]): below the threshold | pKd (MAST2, Q6P0Q8; [2]): 4.53 | pKd (NHERF2_2, Q15599; [2]): below the threshold | pKd (NHERF4_1, Q86UT5-2; [2]): below the threshold | pKd (PARD3_3, Q8TEW0; [2]): 4.58 | pKd (PDLIM1, O00151; [2]): below the threshold | pKd (PTPN3, P26045; [2]): 4.14 | pKd (SCRIB_1, Q14160; [2]): below the threshold | pKd (SCRIB_2, Q14160; [2]): below the threshold | pKd (SCRIB_3, Q14160; [2]): below the threshold | pKd (SNTG2, Q9NY99; [2]): below the threshold | pKd (SNX27, Q96L92; [2]): below the threshold | pKd (TJP1_2, Q07157; [2]): below the threshold | pKd (TJP3_3, O95049; [2]): below the threshold

ESLLLGPSNF [SHROOM4, Q9ULL8]
pKd (AHNAK1, Q09666; [2]): below the threshold | pKd (APBA1_1, Q02410; [2]): below the threshold | pKd (ARHGEF12, Q9NZN5-2; [2]): below the threshold | pKd (CASK, O14936; [2]): below the threshold | pKd (DLG3_3, Q92796; [2]): below the threshold | pKd (GORASP1, Q9BQQ3; [2]): below the threshold | pKd (GRIP1_2, Q9Y3R0; [2]): below the threshold | pKd (GRIP1_7, Q9Y3R0; [2]): below the threshold | pKd (HTRA2, O43464; [2]): below the threshold | pKd (Inadl_1, Q8NI35; [2]): below the threshold | pKd (Inadl_8, Q8NI35; [2]): 3.57 | pKd (LIN7B, Q9HAP6; [2]): below the threshold | pKd (LIN7C, Q9NUP9; [2]): below the threshold | pKd (LNX1_1, Q8TBB1; [2]): below the threshold | pKd (MAGI2_3, Q86UL8; [2]): below the threshold | pKd (MAGI2_5, Q86UL8; [2]): below the threshold | pKd (MAGI3_2, Q5TCQ9; [2]): below the threshold | pKd (MAST1, Q9Y2H9; [2]): below the threshold | pKd (MAST2, Q6P0Q8; [2]): below the threshold | pKd (NHERF2_2, Q15599; [2]): below the threshold | pKd (NHERF4_1, Q86UT5-2; [2]): below the threshold | pKd (PARD3_3, Q8TEW0; [2]): below the threshold | pKd (PDLIM1, O00151; [2]): below the threshold | pKd (PTPN3, P26045; [2]): below the threshold | pKd (SCRIB_1, Q14160; [2]): below the threshold | pKd (SCRIB_2, Q14160; [2]): below the threshold | pKd (SCRIB_3, Q14160; [2]): below the threshold | pKd (SNTG2, Q9NY99; [2]): below the threshold | pKd (SNX27, Q96L92; [2]): below the threshold | pKd (TJP1_2, Q07157; [2]): below the threshold | pKd (TJP3_3, O95049; [2]): below the threshold
